Legend:
[1] = molecular target: T1, DNA topoisomerase IIIα (UniProt Q13472)
T1 sequence: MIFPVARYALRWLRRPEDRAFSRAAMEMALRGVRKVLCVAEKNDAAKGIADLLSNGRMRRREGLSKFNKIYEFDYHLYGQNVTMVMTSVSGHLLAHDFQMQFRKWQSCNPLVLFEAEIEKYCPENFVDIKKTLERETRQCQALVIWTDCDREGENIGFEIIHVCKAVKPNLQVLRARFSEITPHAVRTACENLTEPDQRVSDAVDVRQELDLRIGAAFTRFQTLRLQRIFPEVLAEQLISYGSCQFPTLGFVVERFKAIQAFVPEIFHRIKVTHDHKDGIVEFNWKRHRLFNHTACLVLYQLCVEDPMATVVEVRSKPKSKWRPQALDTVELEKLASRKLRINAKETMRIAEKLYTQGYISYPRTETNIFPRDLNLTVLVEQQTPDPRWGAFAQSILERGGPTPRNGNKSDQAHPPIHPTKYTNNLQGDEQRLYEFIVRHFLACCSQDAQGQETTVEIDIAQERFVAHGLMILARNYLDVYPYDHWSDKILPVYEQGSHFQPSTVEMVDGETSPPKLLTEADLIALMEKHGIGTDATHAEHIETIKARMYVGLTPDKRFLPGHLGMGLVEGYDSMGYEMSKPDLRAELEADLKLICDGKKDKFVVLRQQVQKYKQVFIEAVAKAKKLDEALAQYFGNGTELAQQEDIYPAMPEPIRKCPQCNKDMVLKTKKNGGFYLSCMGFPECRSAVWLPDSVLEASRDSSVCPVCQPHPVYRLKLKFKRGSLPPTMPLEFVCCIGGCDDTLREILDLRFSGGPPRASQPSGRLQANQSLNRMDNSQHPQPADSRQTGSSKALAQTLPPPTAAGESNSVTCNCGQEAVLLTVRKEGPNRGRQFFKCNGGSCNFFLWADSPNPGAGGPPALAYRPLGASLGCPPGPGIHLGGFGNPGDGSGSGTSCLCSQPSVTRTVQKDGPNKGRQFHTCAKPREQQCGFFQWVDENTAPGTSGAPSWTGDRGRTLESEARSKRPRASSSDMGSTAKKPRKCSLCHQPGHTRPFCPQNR

[2] = molecular target: T1, DNA topoisomerase IIIα; remark: listed apart in the source

Molecule | TopoIIIα decatenase activity with BLM (33-66 nM) in the presence of RPA (100 nM), against TopoIIIα alone [1] [fold] | TopoIIIα-mediated decatenation of single-stranded catenane with both BLM (17 nM) and RMI1 (75-150 nM) in the presence of RPA (100 nM), against TopoIIIα alone [2] [fold]
BLM (from UniProt P54132 1-1417) (enzyme) | 1.5 | 
RMI1 (natural protein) MNVTSIALRAETWLLAAWHVKVPPMWLEACINWIQEENNNVNLSQAQMNKQVFEQWLLTDLRDLEHPLLPDGILEIPKGELNGFYALQINSLVDVSQPAYSQIQKLRGKNTTNDLVTAEAQVTPKPWEAKPSRMLMLQLTDGIVQIQGMEYQPIPILHSDLPPGTKILIYGNISFRLGVLLLKPENVKVLGGEVDALLEEYAQEKVLARLIGEPDLVVSVIPNNSNENIPRVTDVLDPALGPSDEELLASLDENDELTANNDTSSERCFTTGSSSNTIPTRQSSFEPEFVISPRPKEEPSNLSIHVMDGELDDFSLEEALLLEETVQKEQMETKELQPLTFNRNADRSIERFSHNPNTTNNFSLTCKNGNNNWSEKNVSEQMTNEDKSFGCPSVRDQNRSIFSVHCNVPLAHDFTNKEKNLETDNKIKQTSSSDSHSLNNKILNREVVNYVQKRNSQISNENDCNLQSCSLRSSENSINLSIAMDLYSPPFVYLSVLMASKPKEVTTVKVKAFIVTLTGNLSSSGGIWSITAKVSDGTAYLDVDFVDEILTSLIGFSVPEMKQSKKDPLQYQKFLEGLQKCQRDLIDLCCLMTISFNPSLSKAMVLALQDVNMEHLENLKKRLNK |  | 30

From paper PMC3401101
